Test results published in patent US20010041790A1.

Molecular target: 35S-labeled hamster PrPsen, glycophosphoinositol-negative form (35S-HaPrPsen) (Syrian golden hamster) (UniProt P04273)
Assay: cell-based or functional assay

Question: With HaP109-141(del113-116) (peptide) as the substance, how does the IC50 of the conversion reaction read?
Answer: 70 µM
